Assay results: paper PMC4445970 (Nature structural & molecular biology, 2015)

Target: the molecule itself
Assay: cryo-EM structure

| Protein | stoichiometry N | binding result |
| --- | --- | --- |
| pyocin R2 tube protein (natural protein) MIPQTLTNTNLFIDGVSFAGDVPSLTLPKLAVKTEQYRAGGMDAPVSIDMGLEAMEAKFSTNGARREALNFFGLADQSAFNGVFRGSFKGQKGASVPVVATLRGLLKEVDPGDWKAGEKAEFKYAVAVSYYKLEVDGREVYEIDPVNGVRAINGVDQLAGMRNDLGL | 6 |  |
| pyocin R2 sheath protein (natural protein) MSFFHGVTVTNVDIGARTIALPASSVIGLCDVFTPGAQASAKPNVPVLLTSKKDAAAAFGIGSSIYLACEAIYNRAQAVIVAVGVETAETPEAQASAVIGGISAAGERTGLQALLDGKSRFNAQPRLLVAPGHSAQQAVATAMDGLAEKLRAIAILDGPNSTDEAAVAYAKNFGSKRLFMVDPGVQVWDSATNAARNAPASAYAAGLFAWTDAEYGFWSSPSNKEIKGVTGTSRPVEFLDGDETCRANLLNNANIATIIRDDGYRLWGNRTLSSDSKWAFVTRVRTMDLVMDAILAGHKWAVDRGITKTYVKDVTEGLRAFMRDLKNQGAVINFEVYADPDLNSASQLAQGKVYWNIRFTDVPPAENPNFRVEVTDQWLTEVLDVA |  | binds |
